For data set [1], the target named is T1, Un1Cas12f1 D510A (Cas14a1; catalytically inactive) (UniProt A0A482D308 1-529, D510A).
T1 sequence: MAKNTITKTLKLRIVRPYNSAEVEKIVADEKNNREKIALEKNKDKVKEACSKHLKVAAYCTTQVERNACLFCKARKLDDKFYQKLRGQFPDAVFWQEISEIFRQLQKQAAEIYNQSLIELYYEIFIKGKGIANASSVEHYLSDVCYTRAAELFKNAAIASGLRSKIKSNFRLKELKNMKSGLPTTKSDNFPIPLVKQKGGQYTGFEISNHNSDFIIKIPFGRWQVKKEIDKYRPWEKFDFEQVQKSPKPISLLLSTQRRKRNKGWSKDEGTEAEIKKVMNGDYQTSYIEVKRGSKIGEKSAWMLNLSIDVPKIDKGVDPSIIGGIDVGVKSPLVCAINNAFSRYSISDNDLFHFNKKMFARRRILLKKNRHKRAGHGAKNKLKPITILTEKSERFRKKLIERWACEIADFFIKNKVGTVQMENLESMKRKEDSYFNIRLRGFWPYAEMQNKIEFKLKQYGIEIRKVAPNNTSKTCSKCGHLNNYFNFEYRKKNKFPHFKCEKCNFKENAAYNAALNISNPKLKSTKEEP
Briefly: cryo-EM (3.1 A); SEC; 1 mM Mg2+; Complex assembly in 25 mM Tris-HCl pH 7.6, 150 mM NaCl, 2 mM DTT, 1 mM MgCl2, 37 C 30 min; SEC in same buffer. The following applies: protein: recombinant; tags: N-terminal 10xHis-MBP removed by TEV; chain copies: 2; sgRNA; target and non-target DNA strands blunt 60 bp; guide:target heteroduplex 19-20 bp.

Data set [2] has as its target T2, Un1Cas12f1 (Cas14a1) (UniProt A0A482D308 1-529).
T2 sequence: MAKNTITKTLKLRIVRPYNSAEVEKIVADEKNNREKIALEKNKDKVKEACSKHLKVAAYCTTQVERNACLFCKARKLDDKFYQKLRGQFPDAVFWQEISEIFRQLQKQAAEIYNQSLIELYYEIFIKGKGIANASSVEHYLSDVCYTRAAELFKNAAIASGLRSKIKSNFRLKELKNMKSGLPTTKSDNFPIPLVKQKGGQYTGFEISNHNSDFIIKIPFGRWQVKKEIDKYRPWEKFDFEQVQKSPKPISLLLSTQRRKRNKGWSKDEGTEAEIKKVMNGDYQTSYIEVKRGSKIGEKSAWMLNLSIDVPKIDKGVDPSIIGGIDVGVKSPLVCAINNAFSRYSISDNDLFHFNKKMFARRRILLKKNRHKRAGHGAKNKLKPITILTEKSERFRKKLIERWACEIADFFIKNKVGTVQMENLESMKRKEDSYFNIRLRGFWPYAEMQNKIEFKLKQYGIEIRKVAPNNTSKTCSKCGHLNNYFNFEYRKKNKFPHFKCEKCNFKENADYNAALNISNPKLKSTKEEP
Briefly: cryo-EM (3.9 A); SEC; 1 mM Mg2+; no target DNA; Complex assembly in 25 mM Tris-HCl pH 7.6, 150 mM NaCl, 2 mM DTT, 1 mM MgCl2, 37 C 30 min; SEC in same buffer. The settings on record: protein: recombinant; tags: N-terminal 10xHis-MBP removed by TEV; chain copies: 2; four stem-loops, two AR:R duplexes; 1 copy per Cas12f dimer.

Data set [3] concerns the molecule itself. Briefly: cryo-EM structure; Cas12f D510A with sgRNA (222 nt) and 60-bp target dsDNA (TTTA PAM), ratio 1:1.2:1.3, 37°C, purified by SEC in 25 mM Tris-HCl pH 7.6, 150 mM NaCl, 2 mM DTT, 1 mM MgCl2; 3.1 Å. On the technique in general: SEC sorts molecules by how far they enter the pores of the column.
Data set [4] deals with the molecule itself. Briefly: cryo-EM structure; Cas12f with sgRNA, ratio 1:1.2, 37°C for 30 min in 25 mM Tris-HCl pH 7.6, 150 mM NaCl, 2 mM DTT, 1 mM MgCl2; no target DNA; 3.9 Å.

B1: sgRNA + 60-bp target dsDNA (TTTA PAM) (mixed)
RNA: CUUCACUGAUAAAGUGGAGAACCGCUUCACCAAAAGCUGUCCCUUAGGGGAUUAGAACUUGAGUGAAGGUGGGCUGCUUGCAUCAGCCUAAUGUCGAGAAGUGCUUUCUUCGGAAAGUAACCCUCGAAACAAAUUCAUUUUUCCUCUCCAAUUCUGCACAAGAAAGUUGCAGAACCCGAAUAGACGAAUGAAGGAAUGCAACAGUUGACCCAACGUCGCCGG
DNA 1: GCTGATGCATCTAGATTGTGCACGCCGGCGACGTTGGGTCAACTTAAATACGTAAGGTGC
DNA 2: GCACCTTACGTATTTAAGTTGACCCAACGTCGCCGGCGTGCACAATCTAGATGCATCAGC
Regarding B1, the binding result in data set [1] is recorded as “binds”.

B2: sgRNA (full length, 222 nt) (structured_RNA)
RNA: CUUCACUGAUAAAGUGGAGAACCGCUUCACCAAAAGCUGUCCCUUAGGGGAUUAGAACUUGAGUGAAGGUGGGCUGCUUGCAUCAGCCUAAUGUCGAGAAGUGCUUUCUUCGGAAAGUAACCCUCGAAACAAAUUCAUUUUUCCUCUCCAAUUCUGCACAAGAAAGUUGCAGAACCCGAAUAGACGAAUGAAGGAAUGCAACAGUUGACCCAACGUCGCCGG
As for B2, the binding result in data set [2] was “binds”.

B3: Un1Cas12f1 D510A (inactive Cas12f mutant used for the Cas12f-sgRNA-target DNA ternary complex) (enzyme, UniProt A0A482D308 1-529, looked up)
chain: MAKNTITKTLKLRIVRPYNSAEVEKIVADEKNNREKIALEKNKDKVKEACSKHLKVAAYCTTQVERNACLFCKARKLDDKFYQKLRGQFPDAVFWQEISEIFRQLQKQAAEIYNQSLIELYYEIFIKGKGIANASSVEHYLSDVCYTRAAELFKNAAIASGLRSKIKSNFRLKELKNMKSGLPTTKSDNFPIPLVKQKGGQYTGFEISNHNSDFIIKIPFGRWQVKKEIDKYRPWEKFDFEQVQKSPKPISLLLSTQRRKRNKGWSKDEGTEAEIKKVMNGDYQTSYIEVKRGSKIGEKSAWMLNLSIDVPKIDKGVDPSIIGGIDVGVKSPLVCAINNAFSRYSISDNDLFHFNKKMFARRRILLKKNRHKRAGHGAKNKLKPITILTEKSERFRKKLIERWACEIADFFIKNKVGTVQMENLESMKRKEDSYFNIRLRGFWPYAEMQNKIEFKLKQYGIEIRKVAPNNTSKTCSKCGHLNNYFNFEYRKKNKFPHFKCEKCNFKENAAYNAALNISNPKLKSTKEEP
notes: Cas12f (UnCas12f1 / Un1Cas12f1, also known as Cas14), full length, 529 amino acids, 61.5 kDa; plasmid Addgene #112500; catalytic D510 changed to alanine; three N-terminal and four C-terminal residues are not modelled; also called Cas12f D510A; Cas12f.2; source: E. coli BL21(DE3), purified (Ni-NTA, TEV cleavage, HiTrap SP, Superdex 200); not shown: 10xHis-MBP, N-terminal, cleaved
By stoichiometry N is commonly meant the number of molecules, sites or subunits per partner or assembly. As for B3, in data set [3], the “stoichiometry N” value was 2.

B4: Cas12f (UnCas12f1), used for the Cas12f-sgRNA binary complex (enzyme, UniProt A0A482D308 1-529, looked up)
chain: MAKNTITKTLKLRIVRPYNSAEVEKIVADEKNNREKIALEKNKDKVKEACSKHLKVAAYCTTQVERNACLFCKARKLDDKFYQKLRGQFPDAVFWQEISEIFRQLQKQAAEIYNQSLIELYYEIFIKGKGIANASSVEHYLSDVCYTRAAELFKNAAIASGLRSKIKSNFRLKELKNMKSGLPTTKSDNFPIPLVKQKGGQYTGFEISNHNSDFIIKIPFGRWQVKKEIDKYRPWEKFDFEQVQKSPKPISLLLSTQRRKRNKGWSKDEGTEAEIKKVMNGDYQTSYIEVKRGSKIGEKSAWMLNLSIDVPKIDKGVDPSIIGGIDVGVKSPLVCAINNAFSRYSISDNDLFHFNKKMFARRRILLKKNRHKRAGHGAKNKLKPITILTEKSERFRKKLIERWACEIADFFIKNKVGTVQMENLESMKRKEDSYFNIRLRGFWPYAEMQNKIEFKLKQYGIEIRKVAPNNTSKTCSKCGHLNNYFNFEYRKKNKFPHFKCEKCNFKENADYNAALNISNPKLKSTKEEP
notes: Cas12f (UnCas12f1 / Un1Cas12f1, also known as Cas14), full length, 529 amino acids; plasmid Addgene #112500; The methods say only 'Cas12f proteins' for the binary complex, set against 'Cas12f D510A mutant proteins' for the ternary complex; also called Un1Cas12f1; wild-type Cas12f; source: E. coli BL21(DE3), purified (Ni-NTA, TEV cleavage, HiTrap SP, Superdex 200); not shown: 10xHis-MBP, …
Regarding B4, the binding result in data set [4] is recorded as “binds”.

The values are drawn from publication PMC8053092, “Structural basis for substrate recognition and cleavage by the dimerization-dependent CRISPR–Cas12f nuclease” (Nucleic Acids Research, 2020).
